Test results: the RNAGym collection of RNA variant scans (doi:10.1073/pnas.2313332121)

B1: TPR t1 (parent)
chain: GACCAAUCUGCCCUCAGAGCUCGAGAACAUCUUCGGAUGCAGAGGAGGCAGGCUUCGGUGGCGCGAUAGCGCCAACGUCCUCAACCUCCAAUGCAUCCCACCACAUGAUGAUGCCUGAAGAGCCUUGGUUUUUUG

Variants of: B1
Test: polymerase ribozyme fitness, log enrichment relative to wild type (log ratio); higher = more active; in vitro selection for triplet polymerase activity
In short: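 Mutant libraries of each subunit of a heterodimeric triplet polymerase ribozyme were built by PCR and transcribed. Each library went through one round of in vitro selection in triplicate: annealing with biotinylated primer, partner subunit and triplets, frozen incubation at −7 °C, gel excision of extended constructs, streptavidin-bead capture and RT-PCR. Input and output libraries were Illumina-sequenced; only genotypes with ≥10 input reads and ≥1 read per output were kept. Fitness is log2(genotype enrichment/wild-type enrichment), using inverse-variance-weighted replicate averages.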

Row | Variant | polymerase ribozyme fitness (log ratio)
1 | GACCAAUCUGCCCUCAGAGCUCGAGAACAUCUUCGGAUGUAGAGGAGGCAGGCUCCGGUGGCGCGAUAGUGCCAACGUCCUCAACCUCCAAUGCAUCCCACCACAUGAUGAUGCCUGAAGAGCCUUGGUUUUUUG | -1.45
2 | GACCAAUCUGCCCUCAGAGCUCGAGAACAUCUUCGGAUGCAGAGGAGGCAGGCUUCGGUGGCGCGAUAGGGCCAACGUCCUCAACCUCCAAUGCAUCCCACCACAUGAUGAUGCCUGAAGAACCUUGGUUUUUUG | -3.06
3 | GACCAAUCUGCCAUCAGAGCCCGAGAACAUCUUCGGAUGCAGAGGAGGCUGGCUUCGGUGGCGCGAUAGCGCCAACGUCCUCAACCUCCAAUGCAUCUCACCACAAGAUGAUGCUUGAAGAGCCUUGGUUUUUUG | -6.68
4 | GACCAAUCUGCCCUCAGAGCUCGAGAACAUCUUCGGAUGCAGAGGAGGCAGGCUUCGGUGGCGCGAUAGCGCUAACGUCCUCAACCUCCAAUGCAUCCCACAACAUGAUGAUGCCUGAAGAGCCUUGGUUAUUUG | -1.19
5 | GACCAAUCUGCCCUCAGAGCUCGAGAACAUCUUCGGAUGUAGAGGAGGCAGGCUUCGGUGGCGCGAUAGGGCCAACGUCCUCAACCUCCAAUGCAUCUCACCACAUGAUGAUGCCUGAUGAGCCUUGGUUUUUUG | -3.66
6 | GACCAAUCUGCCCUCAGAGCUCGAGAACAUCUUCGGAUGCAGAGGAGGCAGGUUUCGGUGGCGCGAUAGCGCCAACGUCCUCAACCUCCAAUGCAUCCCACCACAUGAUGAUGCCUCAAGAGCCUUGGUUUUUUG | -3.1
7 | GACCAAUCUGCCCUCGGAGCUCGAGAACAUCUUCGGAUACAGAGGAGGCAGGCUUCGGUGGCGCGAUAGCGCCAACGUCCUCAACCUCCAAUGCAUCCCACCACAUGAUGAUGUCUGAAGAGCCUUGGUUUUUUG | -4.17
8 | GACCAAUCUGCCCUCAGAGCUCGAGAACAUGUUCGGAUGCAGAGGAGGCAGGCUUUGGUGACGCGAUAACGCCAACGUCCUCAACCGCCAAUGCAUCCCACCACAUGAUGAUGCCUGAAGAGGCUUGGUUUUUUG | -7.19
9 | GACCAAUCUGCCCUCAGAGCUCGAGAACGUCUUCGGGUGCAGAGGAGGCAGGCUUCGGUGGCACGAUAGCGCCAACGUCCUCAACCUUCAAUGCAUCCCACCACAUGAUGCUGCCUGAAGAGCCUUGGUUUUUUG | -3.49
10 | GACCAAUCUGCCCUCAGAGCUCGAGAACAUCUUCGGAUGCAGAGGAGGCAGGCUUCGGUGGCGGGAUAGCGCCAACGGCCUCAACCUCCAAUGCAUCCCACCACAUGAUGAUGCCUGAAAGGACUUGGUUCUUUG | -4.99
11 | GACCAAUCUGCCCUCAGAGCUCGAGAACAUCUUCGGAUACAGAGGUGGCAGGCUUCGGUGGCGCGAUAGCGCCAACGUCCUCAACCACCAAUGCAUCCCACCACAAGAUGAUGCCUGAAGAGCCUUGGUUUUUUG | 0.825
12 | GACCAAUCUGCCCUCAGAGCUCGAGAACGUCUUCGGAUGCAGAGGAGGCAGGCUUCGGUGGCGCGAUAGCGUCAACGUCCUCAACCUCCAAUGCAUCCCACCACAUGAUGAUGCCUGAAGAGCCUUGGUUUUUUG | -1.98
13 | GACCACUCUGUCCUCAGAGCUCGAGAACAUCUUCGGAUGCAGAGGAGGCAGGCUUCGGUGGCCCGAUAGCGCCAACGUCCUCAACCUCCAAUGCAUCCCACCACAUGAUGAUGCCUGAAGAGCCUUGGUUUUUUG | -1.94
14 | GACCAAUCUGCCCUCAGAGCUUGAGAACAUCUUCGGAUGCAGAGGAGGCAGGCUUCGGUGGCGCGAUAGCGUCAACGUCCUCAACCUCCAAUGCAUCCCACCACAUGAUGAUGCCUGAAGAGCCUUGGUUUUUUG | -3.69
15 | GACCAAUUUGCCCUCAGAGCUCGAGAACAUCUUCGGAUGCAUAGGAGGCAGGCUUCGGUGGCGCGAUAGCGCGAACGUCCUCAACCUCCAAUGCAUCCCACCACAUGAUGAUGCCUGAAGAGCCUUGGUUUUUUG | -2.13
16 | GACCAAUCUGCCCUCAGAGCUCGAGAACAUCUUCGGCUGCAGAGGAGGUAGGCUUCGGUGCCGCGAUAGCGCCAACGUCCUCAACCUCCAAUGCAUCCCACCACAUGAUGAUGCCUGAAGAGCCUUGGUUUUUUG | -3.38
17 | GACCAAUCUGCUCUCAGAGCUCGAGAACAUCUUCGGAUGCAGAGGAGGCAGGCUUCGGUGGCGCGAUAUCGCCAACAUCCUCAACCUCCAAUGCAUCCCACCACAUGAUGAUGCCUGAAGAGCCUUGGUUUUUUG | 0.767
18 | GACCAAUCAGCCCUCAGAGCUCGAGAACAUCUUCGGAUGGAUAGGAGGCAGGCUUCGGUGGCGCGAUAGCGCCAACGUCCUCAACCUCCAAUGCAUCCCACCACAUGAUGAUGCCUGAAGAGCCUUGGUUUUUUG | -1.9
19 | GACCAAUCUGCCGUCAGAGCUCGAGAACAUCUUCGGAUGCAGAGGAGGCAGGUUUCGGUGGCGCGAUAGCGCCAACGUCCUCAACCUCCAAUGCAUCCCACCACAUGAUGAUACCUGAAGAGCCUUGUUUUUUUG | -5.15
20 | GACGAAUCUGCCCUCAGAGCUCGAGAAAAUCUUCGGAUGGAGAGGAGUGAGGCUUCGGUGGCACGAUAGCGCCAACGUCCUCAACCUCCAAUGCAGCCCACCACAUGAUGAUGGCGGAAGAGCCUUGGUUUUUUG | -6.86
21 | GACCAAUCUGCCCUCAGAGCUCGAGAACAUCUUCGGAUGCAGAGGAGGCAGGCUUCGGUGGCGCGAUAGCGCCAACGUCCUCCACCUCCAAUGCAUCCCAUCACAUGAUGAUGCCUGAAGAGCCUUGGUUUUUUG | 0.114
